Here are results for one protein from paper PMC3567400 (Biochemistry, 2013).

This series concerns the molecule itself. Put plainly: crystal structure.

B1: LnmK (Tyr62Phe) (enzyme, Streptomyces atroolivaceus S-140, UniProt Q8GGP1 2-319, looked up)
chain: SITSSLDVRPEIKQAVTVRPGMCGPGSLFVGQLGDWTWETVSAQCDTDVFAARDASGNPTFLAFYYFRVRGGRELHPGSLTFGDRLTVTSGCYDQGTESVLTLHRIDRAGSDDAQRPLDLHEFYERPRDGSLYVENFNRWVTRSAPGSNEDLVKSSPPGFRNDGLPQLPAAYSPRAVYREARTAHTFRALDEPGFRLLPDTVEVEHPVDIVRDVNGVGLLYFASYFSMVDKAALALWRRLGRSDRAFLRRVVVDQQMCYLGNADLDSVLTLGARVRVSTETPGEELVDVVISDRDSGRVIAVSTLHTQHDAHDPKGEA
Regarding B1, the binding result is listed as “binds”.
